For one substance, fold avidity relative to TF1 and percent shifted to a high molecular weight species results are on record in patent EP1874358B1.

Assay [1] deals with fusion protein containing the A3B3 domain of CEA (UniProt P06731). In words: competitive ELISA against HRP-conjugated hMN-14 IgG (1 nM) on A3B3 fusion protein. In general terms: An ELISA detects its analyte on a solid surface through an enzyme-linked reagent.
The next assay has as its target CEA (UniProt P06731). In words: SE-HPLC of 125I-TF2 mixed with a 20-fold molar excess of CEA.

Consider TF2 (bispecific antibody), for which, in assay [1], the fold avidity relative to TF1 was 2 fold. Also, in the assay with CEA, the percent shifted to a high molecular weight species worked out at 95%.
